Reference: paper PMC2787667 (Cellular signalling, 2009)
Changes are numbered by the printed parent chain. In names and notes the source's numbering stands. Blank lines part the entries; values can stand above or below the molecule they belong to.

Key:
Assay in all cases: FRET or BRET
[1] = molecular target: hFSHR(H485A,S488A,M492A,I495A,F504A), as Rluc and GFP2 fusion proteins (human) (UniProt P23945)
[2] = molecular target: hFSHR(Y110A,H485A,S488A,M492A,I495A,F504A), as Rluc and GFP2 fusion proteins (human) (UniProt P23945)
[3] = molecular target: the molecule itself

BRET50 mut/BRET50 wt [1]: 1.41
Molecule: hFSHR(H485A,S488A,M492A,I495A,F504A), as Rluc and GFP2 fusion proteins (from UniProt P23945 18-695) (receptor)

BRET50 mut/BRET50 wt [2]: 1.29
Molecule: hFSHR(Y110A,H485A,S488A,M492A,I495A,F504A), as Rluc and GFP2 fusion proteins (from UniProt P23945 18-695) (receptor)

B1: hFSHR(M490A,W494A,I495A), as Rluc and GFP2 fusion proteins (receptor, human, UniProt P23945 18-695, looked up)
chain: CHHRICHCSNRVFLCQESKVTEIPSDLPRNAIELRFVLTKLRVIQKGAFSGFGDLEKIEISQNDVLEVIEADVFSNLPKLHEIRIEKANNLLYINPEAFQNLPNLQYLLISNTGIKHLPDVHKIHSLQKVLLDIQDNINIHTIERNSFVGLSFESVILWLNKNGIQEIHNCAFNGTQLDELNLSDNNNLEELPNDVFHGASGPVILDISRTRIHSLPSYGLENLKKLRARSTYNLKKLPTLEKLVALMEASLTYPSHCCAFANWRRQISELHPICNKSILRQEVDYMTQARGQRSSLAEDNESSYSRGFDMTYTEFDYDLCNEVVDVTCSPKPDAFNPCEDIMGYNILRVLIWFISILAITGNIIVLVILTTSQYKLTVPRFLMCNLAFADLCIGIYLLLIASVDIHTKSQYHNYAIDWQTGAGCDAAGFFTVFASELSVYTLTAITLERWHTITHAMQLDCKVQLRHAASVAVMGAAFAFAAALFPIFGISSYMKVSICLPMDIDSPLSQLYVMSLLVLNVLAFVVICGCYIHIYLTVRNPNIVSSSSDTRIAKRMAMLIFTDFLCMAPISFFAISASLKVPLITVSKAKILLVLFHPINSCANPFLYAIFTKNFRRDFFILLSKCGCYEMQAQIYRTETSSTVHNTHPRNGHCSSAPRVTSGSTYILVPLSHLAQN
BRET50 mut/BRET50 wt [3]: 1.5 ratio

B2: hFSHR(Y110A), full-length, as Rluc and GFP2 fusion proteins (receptor, human, UniProt P23945 18-695, looked up)
chain: B1 chain with Y93A, A473M, A477W, A478I
BRET50 mut/BRET50 wt [3]: 1.74 ratio

B3: hFSHR(I381A,V491A), as Rluc and GFP2 fusion proteins (receptor, human, UniProt P23945 18-695, looked up)
chain: B1 chain with I364A, A473M, V474A, A477W, A478I
BRET50 mut/BRET50 wt [3]: 1.69 ratio

B4: hFSHR(I382A,V383A,M490A,V491A), as Rluc and GFP2 fusion proteins (receptor, human, UniProt P23945 18-695, looked up)
chain: B1 chain with I365A, V366A, V474A, A477W, A478I
BRET50 mut/BRET50 wt [3]: 0.934 ratio

B5: hFSHR(W436A,W494A), as Rluc and GFP2 fusion proteins (receptor, human, UniProt P23945 18-695, looked up)
chain: B1 chain with W419A, A473M, A478I
BRET50 mut/BRET50 wt [3]: 1.29 ratio
